# Biological target: recombinant Aβ42 peptide (UniProt P05067)
# extracellular chaperone clusterin, sequence (P10909 23-227): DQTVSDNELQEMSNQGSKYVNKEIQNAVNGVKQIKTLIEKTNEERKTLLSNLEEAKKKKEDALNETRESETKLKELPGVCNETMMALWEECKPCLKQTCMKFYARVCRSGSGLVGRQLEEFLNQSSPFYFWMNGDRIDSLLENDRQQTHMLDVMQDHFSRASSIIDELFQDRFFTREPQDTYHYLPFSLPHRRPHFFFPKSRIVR
# extracellular chaperone clusterin, sequence (P10909 228-449): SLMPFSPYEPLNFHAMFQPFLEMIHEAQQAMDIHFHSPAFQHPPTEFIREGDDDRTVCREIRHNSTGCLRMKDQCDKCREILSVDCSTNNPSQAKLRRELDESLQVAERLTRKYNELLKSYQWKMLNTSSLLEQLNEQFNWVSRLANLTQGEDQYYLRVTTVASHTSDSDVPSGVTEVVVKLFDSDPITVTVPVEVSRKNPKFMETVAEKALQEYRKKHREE
substance,measurement,value
extracellular chaperone clusterin (from UniProt P10909 23-227; P10909 228-449) (natural protein),concentration of clusterin required to reduce by half the Ca^2+ influx into lipid vesicles induced by Aβ42 oligomers (t2 aliquot; dilution series),0.1 nM

# — PMC5615231
